The values that follow come from patent US20080003218A1.

The target in the assay is FcεRI-bound IgE (human IgE loaded on CHO 3D10 cells expressing FcεRI alpha chain) (human) (UniProt P01854). The assay is described as follows: FACS on IgE-loaded CHO 3D10 cells (FIG. 4).
Chain of FcεRI-bound IgE (human IgE loaded on CHO 3D10 cells expressing FcεRI alpha chain) (human) (P01854 whole entry, chain 1 of 2): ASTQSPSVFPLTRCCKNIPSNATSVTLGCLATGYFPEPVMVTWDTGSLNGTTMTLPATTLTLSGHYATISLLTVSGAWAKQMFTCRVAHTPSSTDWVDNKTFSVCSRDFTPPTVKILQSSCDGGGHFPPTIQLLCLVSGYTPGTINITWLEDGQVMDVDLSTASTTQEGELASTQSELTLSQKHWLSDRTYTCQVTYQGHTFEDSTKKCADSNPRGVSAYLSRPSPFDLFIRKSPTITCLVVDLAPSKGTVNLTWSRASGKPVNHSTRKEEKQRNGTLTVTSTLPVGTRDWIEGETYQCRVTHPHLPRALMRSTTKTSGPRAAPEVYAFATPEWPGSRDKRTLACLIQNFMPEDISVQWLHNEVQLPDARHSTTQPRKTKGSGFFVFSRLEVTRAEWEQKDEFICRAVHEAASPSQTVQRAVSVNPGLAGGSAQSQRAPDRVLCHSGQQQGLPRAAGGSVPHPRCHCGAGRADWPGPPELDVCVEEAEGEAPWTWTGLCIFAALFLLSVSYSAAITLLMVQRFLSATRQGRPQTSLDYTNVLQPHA
Chain of FcεRI-bound IgE (human IgE loaded on CHO 3D10 cells expressing FcεRI alpha chain) (human) (P12319 26-257, chain 2 of 2, further chain): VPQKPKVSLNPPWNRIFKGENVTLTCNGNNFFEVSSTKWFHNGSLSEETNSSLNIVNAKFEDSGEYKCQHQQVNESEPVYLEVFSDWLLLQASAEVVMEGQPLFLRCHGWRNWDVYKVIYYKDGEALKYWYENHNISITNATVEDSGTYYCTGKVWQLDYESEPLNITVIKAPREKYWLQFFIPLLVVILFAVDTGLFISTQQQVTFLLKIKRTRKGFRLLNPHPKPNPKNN
On to MOPC21 (murine IgG1 control antibody), for which the mean channel fluorescence at 0.1 µg/ml (mean channel fluorescence) is 7.3.
In the case of “humanized mAb 4D5 (human IgG1 control antibody)” it was 4.7.
The figure for “murine anti-human IgE monoclonal antibody MaE11” is 6.4.
